Assay results reported in US20160032014A1 (Amgen, published 2016).

B1: 25B5 (antibody, human IgG2, lambda, V domains shown)
VH: QIQLVQSGAEVKKPGASVKVSCKASGYTLTSYGISWVRQAPGQGLEWMGWISFYNGNTNYAQKVQGRVTMTTDTSTSTVYMELRSLRSDDTAVYFCARGYGMDVWGQGTTVTVSS
VL: QSALTQPASVSGSPGQSITISCTGTSSDVGGYNSVSWYQQHPGKPPKLMIYEVSNRPSGISNRFSGSKSGNTASLTISGLQAEDEADYFCSSYTSTSMVFGGGTKLAVLR
notes: tested as hybridoma supernatant
B2: 19A12 (antibody, human IgG2, kappa, V domains shown)
VH: QVQLVESGGGVVQPGRSLRLSCAASGFTFSSYGMHWVRQAPGKGLEWVAVIWYDGSNKYYADSVKGRFTISRDNSKNTLYLQMNSLRAEDTAVYYCVRDRGLDWGQGTLVTVSS
VL: not shown
notes: as for B1
B3: 20D12 (antibody, human IgG2, lambda, V domains shown)
VH: QVQLQQWGAGLLKPSETLSLTCAVSGGSFRAYYWNWIRQPPGKGLEWIGEINHSGRTDYNPSLKSRVTISVDTSKNQFSLKLSSVTAADTAVYYCARGQLVPFDYWGQGTLVTVSS
VL: not shown
notes: as for B1
B4: 13G9 (antibody, human IgG2, lambda, V domains shown)
VH: QVQLVQSGAEVTKPGASVKVSCKASGYTFTSYGISWVRQAPGQGLEWMGWISVYKGNTNYAQKLQGRVTMTTDTSTSTAYMELRSLRSDDTAVYYCARNYQIFSFDYWGQGTLVTVSS
VL: QSVLTQPPSVSGAPGQRVTISCTGSRSNIGAGYDVNWYQQLPGTAPKLLIYGNSNRPSGVPDRFSGSKSGTSASLVITGLQAEDEADYYCQSYDSNLSGSVFGGGTKLTVLG
notes: as for B1
B5: SS-15005 (antibody, IgG2, V domains shown)
VH: EVQLLESGGGLVQPGGSLRLSCAASGFTFSSYAMNWVRQAPGKGLEWVSTISGSGGNTYYADSVKGRFTISRDNSKNTLYLQMNSLRAEDTAVYYCAKKFVLMVYAMLDYWGQGTLVTVSS
VL: DIQMTQSPSSLSASVGDRVTITCRASQSISIYLNWYQQKPGKAPYLLIYAAASLQSGVPSRFSGSGSGTDFTLTISSLQPEDFATYYCQQSYSAPITFGQGTRLEIKR
notes: also called 25G4

Target: T1, human PCSK9 (self-cleaved, mature, secreted PCSK9 comprising amino acids 31 to 692 of SEQ ID NO: 2) (human, UniProt Q8NBP7 31-692, biotinylated in the ELISAs)
T1 construct: Limits 31-692 are stated for the immunogen; the assays only say human PCSK9; also called huPCSK9; rhu PCSK9
Assay: ELISA, sup 1:625, expt 2

OD diff (pH 7.4 - pH 6) [OD]	Binder
0	B1
0.7	B2
0.7	B3
-0.6	B4

Target: T1, human PCSK9 (self-cleaved, mature, …)
Assay: ELISA, supernatant on captured biotin-PCSK9, late primary screen

OD 450 nm [OD]	Binder
4.3	B1
3.8	B2
4.2	B3
3.6	B4

Target: T2, human D374Y PCSK9 (human, UniProt Q8NBP7 31-692, limits assumed, biotinylated in the blocking ELISA)
T2 construct: also called D374Y PCSK9 mutant; biotinylated human D374Y PCSK9
Assay: ELISA, blocking of biotin-D374Y PCSK9 binding to LDLR, expt. #1

% Inhibition [%]	Binder
94	B1
89	B2
91	B3
62	B4

Target: T1, human PCSK9 (self-cleaved, mature, …)
Assay: solution equilibrium, BIAcore, pH 5.5

Kd [nM]	Binder
0.15	B5

Target: T1, human PCSK9 (self-cleaved, mature, …)
Assay: ELISA pH 7.4, sup 1:125, expt 1

OD 450 nm [OD]	Binder
2.1	B1
3.6	B2
4.2	B3
6	B4

Target: T1, human PCSK9 (self-cleaved, mature, …)
Assay: solution equilibrium, KinExA or BIAcore, pH 7.4

Kd [nM]	Binder
0.078	B5

Target: T2, human D374Y PCSK9
Assay: ELISA, blocking of biotin-D374Y PCSK9 binding to LDLR, expt. #2

% Inhibition [%]	Binder
93	B1
91	B2
92	B3
77	B4

Target: T1, human PCSK9 (self-cleaved, mature, …)
Assay: ELISA, supernatant on captured biotin-PCSK9, early primary screen

OD 450 nm [OD]	Binder
6	B1
3.7	B2
6	B3
3.8	B4

Target: T1, human PCSK9 (self-cleaved, mature, …)
Assay: ELISA pH 6, sup 1:125, expt 2

OD 450 nm [OD]	Binder
1.7	B1
2.5	B2
2.8	B3
4.2	B4

Target: T1, human PCSK9 (self-cleaved, mature, …)
Assay: ELISA, sup 1:125, expt 2

OD diff (pH 7.4 - pH 6) [OD]	Binder
0.9	B1
1.4	B2
1.3	B3
1.8	B4

Target: T1, human PCSK9 (self-cleaved, mature, …)
Assay: ELISA pH 7.4, sup 1:125, expt 2

OD 450 nm [OD]	Binder
2.6	B1
3.9	B2
4.1	B3
6	B4

Target: T1, human PCSK9 (self-cleaved, mature, …)
Assay: ELISA pH 6, sup 1:625, expt 2

OD 450 nm [OD]	Binder
0.5	B1
1.8	B2
0.8	B3
1.6	B4

Target: T1, human PCSK9 (self-cleaved, mature, …)
Assay: ELISA, sup 1:125, expt 1

OD diff (pH 7.4 - pH 6) [OD]	Binder
0.8	B1
0.7	B2
1.2	B3
2.2	B4

Target: T1, human PCSK9 (self-cleaved, mature, …)
Assay: ELISA, sup 1:625, expt 1

OD diff (pH 7.4 - pH 6) [OD]	Binder
0.3	B1
1.2	B2
1.6	B3
1.5	B4

Target: T1, human PCSK9 (self-cleaved, mature, …)
Assay: solution equilibrium

pH 5.5/7.4 KD ratio	Binder
1.9	B5

Target: T1, human PCSK9 (self-cleaved, mature, …)
Assay: ELISA pH 7.4, sup 1:625, expt 1

OD 450 nm [OD]	Binder
0.8	B1
3	B2
2.5	B3
3.4	B4

Target: T1, human PCSK9 (self-cleaved, mature, …)
Assay: ELISA pH 6, sup 1:125, expt 1

OD 450 nm [OD]	Binder
1.3	B1
2.9	B2
3	B3
3.8	B4

Target: T1, human PCSK9 (self-cleaved, mature, …)
Assay: ELISA pH 7.4, sup 1:625, expt 2

OD 450 nm [OD]	Binder
0.5	B1
2.5	B2
1.5	B3
1	B4

Target: T1, human PCSK9 (self-cleaved, mature, …)
Assay: ELISA pH 6, sup 1:625, expt 1

OD 450 nm [OD]	Binder
0.5	B1
1.9	B2
0.9	B3
2	B4
